# Laboratory results published in patent US20020068361A1, “METHODS OF EVALUATING SPECIFIC CELLULAR FUNCTIONS OF RECEPTOR PROTEIN TYROSINE KINASES IN A LIGAND INDEPENDENT MANNER” (priority 1997, published 2002).
# Experiments:
# rat TRKA receptor = molecular target: T1, rat TRKA receptor (Rattus norvegicus, UniProt P35739); assay: Antibody/ligand recognition of rat TRKA receptor; format: binding
# T1 construct: endogenous in cells
# Description: (§1) The antibody preparation used in the experiments, called CTA, was a rabbit antibody raised against the entire extracellular domain of chicken TRKA expressed in COS cells. […] A useful control for these experiments was to activate the endogenous rat TRKA receptor without influencing the introduced chimeric receptor.
# (§2) While the chick receptor became phosphorylated by both treatments, activation of the rat receptor was detected only after NGF addition. […] The effects of the CTA antibody preparation were therefore not attributable to activation of endogenous TRKA receptors.
# chick TRKA receptor = molecular target: T2, chick TRKA receptor (Gallus gallus, UniProt Q91009); assay: Antibody/ligand recognition of chick TRKA receptor; format: binding, chicken; settings: immunoblot or immunoprecipitation; receptor activation
# T2 construct: expressed in transfected cells
# T2 sequence (Q91009 15-778): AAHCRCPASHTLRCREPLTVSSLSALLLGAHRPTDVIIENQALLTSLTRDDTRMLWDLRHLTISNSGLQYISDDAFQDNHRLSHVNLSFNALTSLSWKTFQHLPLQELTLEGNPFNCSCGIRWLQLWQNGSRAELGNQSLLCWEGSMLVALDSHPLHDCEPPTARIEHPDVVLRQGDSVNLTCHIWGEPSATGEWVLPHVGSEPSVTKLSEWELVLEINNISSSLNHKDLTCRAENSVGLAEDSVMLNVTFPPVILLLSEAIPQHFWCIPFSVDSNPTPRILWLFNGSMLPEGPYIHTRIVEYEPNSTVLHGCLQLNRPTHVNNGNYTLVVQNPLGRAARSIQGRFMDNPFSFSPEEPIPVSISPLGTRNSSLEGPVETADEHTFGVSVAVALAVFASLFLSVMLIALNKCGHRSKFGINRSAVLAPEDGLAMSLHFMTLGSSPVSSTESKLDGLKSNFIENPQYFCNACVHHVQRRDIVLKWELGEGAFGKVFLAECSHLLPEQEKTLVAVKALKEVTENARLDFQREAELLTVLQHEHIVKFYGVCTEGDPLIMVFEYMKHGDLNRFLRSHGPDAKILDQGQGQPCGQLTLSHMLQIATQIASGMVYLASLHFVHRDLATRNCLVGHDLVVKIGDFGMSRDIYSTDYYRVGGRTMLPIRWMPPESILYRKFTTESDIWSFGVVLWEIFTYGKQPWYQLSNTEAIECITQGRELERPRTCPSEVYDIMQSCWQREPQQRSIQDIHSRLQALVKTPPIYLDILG
# Description: as §1, §2
# T1 sequence (P35739 33-799): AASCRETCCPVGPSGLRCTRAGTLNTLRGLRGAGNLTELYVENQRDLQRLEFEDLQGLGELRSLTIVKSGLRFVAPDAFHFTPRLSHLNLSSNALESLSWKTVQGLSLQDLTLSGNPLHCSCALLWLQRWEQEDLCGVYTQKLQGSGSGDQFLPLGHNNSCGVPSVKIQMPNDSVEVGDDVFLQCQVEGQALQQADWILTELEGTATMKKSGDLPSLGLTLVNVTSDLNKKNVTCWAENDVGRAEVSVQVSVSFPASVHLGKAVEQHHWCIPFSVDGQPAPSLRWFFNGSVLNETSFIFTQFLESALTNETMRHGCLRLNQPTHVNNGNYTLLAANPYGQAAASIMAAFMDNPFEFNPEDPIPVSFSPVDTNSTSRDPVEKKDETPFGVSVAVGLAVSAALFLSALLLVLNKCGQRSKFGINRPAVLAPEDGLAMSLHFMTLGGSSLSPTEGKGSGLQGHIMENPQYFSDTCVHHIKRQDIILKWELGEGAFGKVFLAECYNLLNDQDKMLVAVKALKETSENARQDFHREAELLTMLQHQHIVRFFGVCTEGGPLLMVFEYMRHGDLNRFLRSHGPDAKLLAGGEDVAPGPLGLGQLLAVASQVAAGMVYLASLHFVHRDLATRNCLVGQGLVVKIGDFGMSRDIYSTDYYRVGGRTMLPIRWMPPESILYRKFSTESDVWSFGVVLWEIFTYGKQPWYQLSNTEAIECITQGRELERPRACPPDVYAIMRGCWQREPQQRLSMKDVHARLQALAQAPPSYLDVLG
substance,measurement,setting,value
"NGF: nerve growth factor, ligand which binds to the extracellular region of the TRK receptor",recognition of rat TRKA receptor,rat TRKA receptor,binds both receptors
same,recognition of chick TRKA receptor,chick TRKA receptor,binds both receptors
